From publication PMC3553976 come the findings set out here.

In the assay the target is U2AF65 (UniProt P26368). Kind of assay: NMR binding data. Particulars: reference: non-phosphorylated SF1 construct; sites S80,S82.

For the substance “splicing factor 1 (SF1) (from UniProt Q15637) KIS-phosphorylated SF1 construct”, the “binding against the reference” value is on record as “same”.
